{"source": "paper PMC2230540", "about": "(The Journal of General Physiology, 1999)", "proteins": {"B1": {"name": "EriC, Escherichia coli ClC-type Cl- channel homologue, product of the yadQ gene (natural protein, UniProt P37019 1-473, looked up)", "chain": "MKTDTPSLETPQAARLRRRQLIRQLLERDKTPLAILFMAAVVGTLVGLAAVAFDKGVAWLQNQRMGALVHTADNYPLLLTVAFLCSAVLAMFGYFLVRKYAPEAGGSGIPEIEGALEDQRPVRWWRVLPVKFFGGLGTLGGGMVLGREGPTVQIGGNIGRMVLDIFRLKGDEARHTLLATGAAAGLAAAFNAPLAGILFIIEEMRPQFRYTLISIKAVFIGVIMSTIMYRIFNHEVALIDVGKLSDAPLNTLWLYLILGIIFGIFGPIFNKWVLGMQDLLHRVHGGNITKWVLMGGAIGGLCGLLGFVAPATSGGGFNLIPIATAGNFSMGMLVFIFVARVITTLLCFSSGAPGGIFAPMLALGTVLGTAFGMVAVELFPQYHLEAGTFAIAGMGALLAASIRAPLTGIILVLEMTDNYQLILPMIITGLGATLLAQFTGGKPLYSAILARTLAKQEAEQLARSKAASASENT"}}, "biological_target": "the molecule itself", "assay": "cross-linking", "data": [{"protein": "B1", "values": [{"measurement": "stoichiometry N", "value": 2}]}]}
